Test results taken from patent publication US20190010233A1 (JIANGSU HYAMAB PHARMACEUTICAL, published 2019).

Assays:
[1] = target: T1, human PD-L1^ECD-hFc protein (human, UniProt Q9NZQ7 19-239, biotinylated in the PD-1 binding ELISA (Table 3) and in the Octet assay (Table 12)); assay: ELISA, 0.041 nM mAb
T1 construct: The plain and the biotinylated protein are kept as one molecule; also called PD-L1-hFc; Immunogen A; not shown: human IgG Fc fragment (hFc)
Procedure: (§1) 100 μL of the diluted recombinant proteins were added to each well of 96-well plate. The plates were sealed with plastic film and incubated at 4° C. overnight. The plates were washed twice with wash buffer (PBS+0.01% (v/v) Tween20), and incubated with blocking buffer (PBS+0.01% (v/v) Tween20+1% (w/w) BSA) at room temperature for 2 hours. The blocking buffer was aspirated away, and 100 μL of purified anti-PD-L1 antibodies were added to each well and incubated for 2 hours at 37° C. The plates were washed three times with wash buffer (PBS+0.01% (v/v) Tween20). HRP-conjugated secondary antibody (Sigma) was added to each well and incubated for 2 hours at 37° C. After the plates were washed three times with wash buffer, 100 μL TMB substrate were added to each well, and the plates were incubated for 30 minutes at room temperature. 100 μL stop solution (0.1N HCl) was added to each well to stop the reaction.

[2] = target: T1, human PD-L1^ECD-hFc protein; assay: ELISA, 0.123 nM mAb
Procedure: as §1

[3] = target: T2, cyno PD-L1^ECD-hFc protein (cyno, UniProt G7PSE7 19-239); assay: ELISA, 0.123 nM mAb
T2 construct: also called Cyno Monkey PD-L1^ECD-hFc
T2 sequence (G7PSE7 entry or part of it limits assumed): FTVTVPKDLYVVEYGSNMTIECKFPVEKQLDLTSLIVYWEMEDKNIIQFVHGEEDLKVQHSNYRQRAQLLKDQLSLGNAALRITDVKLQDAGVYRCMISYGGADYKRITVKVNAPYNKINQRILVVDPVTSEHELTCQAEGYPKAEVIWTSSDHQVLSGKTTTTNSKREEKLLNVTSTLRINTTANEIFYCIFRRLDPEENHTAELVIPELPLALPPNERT
Procedure: as §1

[4] = target: T3, hPD-L2 (human, UniProt Q9BQ51 20-219, limits assumed); assay: ELISA (numbers in Table 9)
T3 construct: Bought protein
T3 sequence (looked up): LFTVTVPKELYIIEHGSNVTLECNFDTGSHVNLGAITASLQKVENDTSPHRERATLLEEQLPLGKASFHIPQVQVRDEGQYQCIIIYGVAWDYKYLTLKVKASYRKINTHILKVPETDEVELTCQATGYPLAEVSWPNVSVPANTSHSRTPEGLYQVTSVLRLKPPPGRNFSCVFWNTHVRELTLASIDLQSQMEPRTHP
Procedure: as §1

[5] = target: T4, full length cyno PD-L1 on cells (cyno, UniProt G7PSE7 19-290); assay: FACS CHO-K1-cPD-L1, 0.14 nM mAb
T4 construct: also called CHO-K1-cPD-L1
T4 sequence (G7PSE7 entry or part of it limits assumed): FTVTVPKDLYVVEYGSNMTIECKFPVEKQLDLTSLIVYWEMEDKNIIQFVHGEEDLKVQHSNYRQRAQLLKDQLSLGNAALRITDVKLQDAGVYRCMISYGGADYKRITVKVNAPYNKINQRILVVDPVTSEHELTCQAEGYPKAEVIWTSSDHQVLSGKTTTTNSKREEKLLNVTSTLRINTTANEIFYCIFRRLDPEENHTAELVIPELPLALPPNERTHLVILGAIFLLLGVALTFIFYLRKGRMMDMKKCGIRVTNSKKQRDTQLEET
Procedure: Other CHO-K1 were stably transfected with a pIRES plasmid containing the nucleic acid sequence encoding full length cyno PD-L1 to generate CHO-K1 cells stably expressing cyno PD-L1 (herein referred to as CHO-K1-cPD-L1 cells). […] The culture media was aspirated, and the cells were washed twice with HBSS (Hanks Balanced Salt Solution, Invitrogen). The cells were treated with enzyme-free cell dissociation solution (Versene solution, Invitrogen) and collected. The cells were then washed twice with HBSS, cell counts were determined, and cells were resuspended with HBSS at 2×10⁶ cells/mL. Goat serum was added to the cell suspension to a final concentration of 1%, and the cells were blocked for 30 minutes on ice and then washed twice with HBSS. The cells were collected after centrifugation and resuspended in FACS buffer (HBSS+1% BSA, v/v) at 2×10⁶ cells/mL. 100 μL of the cell suspension were then added to each well of 96-well plate. 100 μL of purified anti-PD-L1 antibodies from Example 2 were added to each well of the 96-well plate and incubated for 2 hours on ice. […] The samples were washed three times with FACS buffer, and 100 μL fixation buffer (4% paraformaldehyde v/v) were added to each well and incubated for 10 minutes. The cells were then washed twice with FACS buffer and resuspended in 100 μL FACS buffer. The mean fluorescence intensity (MFI) was determined using FACS Calibur (BD), and the results are shown in FIGS. 7-8 and in Tables 10-11.

[6] = target: T1, human PD-L1^ECD-hFc protein; assay: ELISA receptor-ligand blocking assay: PD-L1^ECD-hFc coated on the plate, antibody titrated, blocked ligand biotinylated PD-1^ECD, HRP-streptavidin, inhibition rate (%)
Procedure: (§2) Purified PD-L1^ECD-hFc (Example 2) was diluted with PBS to a final concentration of 1.0 μg/mL, and 100 μL diluted PD-L1^ECD-hFc were added to each well of a 96-well plate that was then sealed with plastic film and incubated at 4° C. overnight. The plate was washed twice with wash buffer (PBS+0.01% (v/v) Tween 20) and incubated with blocking buffer (PBS+[…]) at room temperature for 2 hours. The blocking buffer was aspirated, and 50 μL purified anti-PD-L1 antibodies from Example 2 were added to each well of 96-well plate. […] The plate was washed three times with wash buffer (PBS+0.01% (v/v) Tween 20). 100 μL HRP-conjugated streptavidin (Sigma) were then added to each well and incubated at 37° C. for 2 hours. The plate was then washed three times with wash buffer, and 100 μL TMB substrate were added to each well. After 30 minutes of incubation at room temperature, the reaction was stopped by adding 100 μL stop solution (0.1N HCl).

[7] = target: T1, human PD-L1^ECD-hFc protein; assay: ELISA receptor-ligand blocking assay: PD-L1^ECD-hFc coated on the plate, antibody titrated, blocked ligand biotinylated B7.1^ECD, HRP-streptavidin, inhibition rate (%)
Procedure: as §2

T1 sequence (Q9NZQ7 19-239): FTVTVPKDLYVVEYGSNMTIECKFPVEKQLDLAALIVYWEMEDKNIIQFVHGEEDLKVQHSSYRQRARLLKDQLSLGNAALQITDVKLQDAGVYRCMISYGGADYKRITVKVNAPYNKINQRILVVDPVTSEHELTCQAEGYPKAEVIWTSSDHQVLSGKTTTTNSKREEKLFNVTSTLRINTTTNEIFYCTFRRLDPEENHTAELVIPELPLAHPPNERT

B1: chimeric anti-PD-L1 antibody 105C5D7 (antibody, V domains shown)
VH: EVQLVESGGGLVQPGGSLRLSCAASGFTFSSYWMSWVRQAPGKGLEWVANIKQDGNEKYYVDSVKGRFTISRDNAKNSLYLQMNSLRAEDTAVYYCARNIKWGDAFDIWGQGTMVTVSS
VL: DIQMTQSPSSLSASVGDRVTITCRASQSISSYLNWYQQKPGKAPKLLIYAASSLQSGVPSRFSGSGSGTDFTLTISSLQPEDFAIYSCQQSYSIPLTFGGGTKVEIK
notes: Purified from hybridoma of Harbour H2L2 mice: human variable regions, rat constant regions
- OD450 nm [1]: 0.34
- OD450 nm [2]: 0.67
- OD450 nm [3]: 0.67
- binding result [4]: no binding
- Mean fluorescence intensity [5]: 42

B2: chimeric anti-PD-L1 antibody 127D2F3 (antibody, V domains shown)
VH: EVQLVESGGGLVQPGGSLRLSCVASGFTFSSYWMSWVRQAPGKGLEWVANIKQDGSEKYYVDSVKGRLTISRDNAKNSLYLQMKSLRAEDTAVYYCARDPIYSSYFDYWGQGILVTVSS
VL: DIQMTQSPSSLSASVGDRVTITCRASQSISNYLNWYQQKPGKAPKLLIYAASSLQSGVPSRFSGSGSGTDFTLTISSLQPEDFAAYYCQQSYGIPFTFGPGTKVDIK
notes: as for B1
- IC50 (read off the curve) [6]: ~0.3 nM
- IC50 (read off the curve) [7]: ~0.4 nM

B3: chimeric anti-PD-L1 antibody 73D3G2 (antibody, V domains shown)
VH: EVQLVESGGGLVQPGGSLRLSCAASGFTFNTYWMNWVRQAPGRGLEWVANIKQDGGEKYYVDSVKGRFTISRDNAKNSLYLQMNSLRAEDTAMYYCARDGRSWYPDAFDIWGQGTVVTVSS
VL: DIQMTQSPSTLSASVGDRVTITCRASQSISTWLAWYQQKLGKAPKLLIYEVSILESGVPSRFSGSGSGTEFTLTISSLQPDDFATYYCQQYHSFSSFGGGTRVEIK
notes: as for B1
- OD450 nm [1]: 0.36
- OD450 nm [2]: 0.72
- OD450 nm [3]: 0.72
- binding result [4]: no binding
- Mean fluorescence intensity [5]: 44.3
- IC50 (read off the curve) [6]: ~0.5 nM

B4: chimeric anti-PD-L1 antibody 78A11F6 (antibody, V domains shown)
VH: EVQLVESGGGLVQPGGSLRLSCAASGITFSSYWMSWVRQTPGKGLEWVANIKQDGSEKYYVKSVKGRFTISRDNAKNSLYLQMNSLRAEDTAVYYCVRDRAVPGTGAFDIWGQGTMVIVSS
VL: DIQMTQSPSTLSASVGDRVTITCRASQSISNWLAWYQQKPGKAPKLLIYKASSLESGVPSRFSGSGSGTEFTLTISSLQPDDFATYYCQQYDSSLFTFGQGTKLEIK
notes: as for B1
- OD450 nm [1]: 0.37
- OD450 nm [2]: 0.84
- OD450 nm [3]: 0.91
- binding result [4]: no binding
- Mean fluorescence intensity [5]: 38.3

B5: chimeric anti-PD-L1 antibody 73G11B3 (antibody, V domains shown)
VH: EVQLVESGGGLVQPGGSLRLSCVVSGFTFSSYWMSWVRQTPGKGLEWVANIKQDGSEKYYVDSVKGRLTISRDNAKNSLYLQMNSLRAEDTAVYYCVRDRAVPGTGALDIWGQGTMVTVSS
VL: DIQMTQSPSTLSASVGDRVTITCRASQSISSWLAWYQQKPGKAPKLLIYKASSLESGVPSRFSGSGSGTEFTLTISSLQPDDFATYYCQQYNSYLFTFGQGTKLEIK
notes: as for B1
- IC50 (read off the curve) [6]: ~0.4 nM
- IC50 (read off the curve) [7]: ~0.5 nM
